In test [1] the target is T1, bovine ubiquitin (bovine, UniProt P0CG53 1-76). The experiment in a line: ITC. On the technique in general: Isothermal titration calorimetry measures the heat released or taken up as one component is titrated into another.
For test [2], the target named is T1, bovine ubiquitin. The experiment in a line: ITC; one-site model, N=2.

B1: Ddi1 RVP-UBA (180-428) (domain or fragment)
chain: QQAIDEQLRNAIEYTPEMFTQVPMLYINIEINNYPVKAFVDTGAQTTIMSTRLAKKTGLSRMIDKRFIGEARGVGTGKIIGRIHQAQVKIETQYIPCSFTVLDTDIDVLIGLDMLKRHLACVDLKENVLRIAEVETSFLSEAEIPKSFQEGLPAPTSVTTSSDKPLTPTKTSSTLPPQPGAVPALAPRTGMGPTPTGRSTAGATTATGRTFPEQTIKQLMDLGFPRDAVVKALKQTNGNAEFAASLLFQ
Turning to B1, the Ka in test [1] is 23400 M⁻¹.

B2: Ddi1 UBL-RVP (1-325) (domain or fragment)
chain: MDLTISNELTGEIYGPIEVSEDMALTDLIALLQADCGFDKTKHDLYYNMDILDSNRTQSLKELGLKTDDLLLIRGKISNSIQTDAATLSDEAFIEQFRQELLNNQMLRSQLILQIPGLNDLVNDPLLFRERLGPLILQRRYGGYNTAMNPFGIPQDEYTRLMANPDDPDNKKRIAELLDQQAIDEQLRNAIEYTPEMFTQVPMLYINIEINNYPVKAFVDTGAQTTIMSTRLAKKTGLSRMIDKRFIGEARGVGTGKIIGRIHQAQVKIETQYIPCSFTVLDTDIDVLIGLDMLKRHLACVDLKENVLRIAEVETSFLSEAEIPK
As to B2, in test [1], the Ka turned out to be 3190 M⁻¹.

B3: full-length yeast Ddi1 (natural protein)
chain: MDLTISNELTGEIYGPIEVSEDMALTDLIALLQADCGFDKTKHDLYYNMDILDSNRTQSLKELGLKTDDLLLIRGKISNSIQTDAATLSDEAFIEQFRQELLNNQMLRSQLILQIPGLNDLVNDPLLFRERLGPLILQRRYGGYNTAMNPFGIPQDEYTRLMANPDDPDNKKRIAELLDQQAIDEQLRNAIEYTPEMFTQVPMLYINIEINNYPVKAFVDTGAQTTIMSTRLAKKTGLSRMIDKRFIGEARGVGTGKIIGRIHQAQVKIETQYIPCSFTVLDTDIDVLIGLDMLKRHLACVDLKENVLRIAEVETSFLSEAEIPKSFQEGLPAPTSVTTSSDKPLTPTKTSSTLPPQPGAVPALAPRTGMGPTPTGRSTAGATTATGRTFPEQTIKQLMDLGFPRDAVVKALKQTNGNAEFAASLLFQ
B3 showed a Ka in test [2] of 3160 M⁻¹.

Values taken from PMC5028754 (2016).
